From article PMC6467919, “Designed Mutations Alter the Binding Pathways of an Intrinsically Disordered Protein” (Scientific Reports, 2019)
Positions count from the first letter of the chain named. Blank lines part the entries; values can stand above or below the binder they belong to.

Experiments:
Settings in all cases: both partners purified
[1] = target: T1, Human Cdc42 (residues 1-179) with Glu31, Asn39, Glu62, Asp63, Asp65 and Gln74 all substituted by Lys (human, UniProt P60953 1-179, Glu31 substituted by Lys | Asn39 substituted by Lys | Glu62 substituted by Lys …); test: stopped-flow fluorescence; ka from kobs against [GBD]; 0.1 μM mantGppNHp·Cdc42 in one syringe, GBD in excess in the second; 50 mM sodium phosphate pH 7.0, 5 mM MgCl2, 1 mM TECP, 25 °C
T1 construct: four extra residues (Gly-Ser-Phe-Thr) from the expression vector left at the N-terminus of Cdc42; human Cdc42, residues 1-179, with the 6K mutations around the subsite for GBD Csub; Loaded with mantGppNHp or GppNHp; also called Cdc42_(6K); source: E. coli Rosetta, purified (HisTrap, TEV cleavage, second HisTrap, Superdex 75); not shown: His6, N-terminal, cleaved
T1 sequence (P60953 other isoform, or with tags, fused parts or gaps with the stated changes): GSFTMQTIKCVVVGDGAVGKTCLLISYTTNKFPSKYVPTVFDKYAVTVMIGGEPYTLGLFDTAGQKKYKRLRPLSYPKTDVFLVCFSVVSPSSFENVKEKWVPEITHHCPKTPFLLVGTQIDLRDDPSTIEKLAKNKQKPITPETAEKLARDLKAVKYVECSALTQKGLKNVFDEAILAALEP

[2] = target: T2, Human Cdc42 GTPase, wild type, residues 1-179 (human, UniProt P60953 1-179); test: as above
T2 construct: four extra residues (Gly-Ser-Phe-Thr) from the expression vector left at the N-terminus of Cdc42; human Cdc42, residues 1-179; also called Cdc42WT; wild-type Cdc42; source: E. coli Rosetta, purified (HisTrap, TEV cleavage, second HisTrap, Superdex 75); not shown: His6, N-terminal, cleaved
T2 sequence (P60953 other isoform, or with tags, fused parts or gaps): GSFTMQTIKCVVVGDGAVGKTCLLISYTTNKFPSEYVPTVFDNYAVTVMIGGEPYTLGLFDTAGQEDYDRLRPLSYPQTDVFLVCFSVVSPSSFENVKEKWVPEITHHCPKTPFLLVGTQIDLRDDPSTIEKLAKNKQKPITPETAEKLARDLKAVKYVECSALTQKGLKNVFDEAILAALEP

[3] = target: T2, Human Cdc42 GTPase, wild type, residues …; test: stopped-flow fluorescence; kd measured directly by displacement: 0.1 μM mantGppNHp·Cdc42 and 1 μM GBD mixed with 20 μM GppNHp·Cdc42; 50 mM sodium phosphate pH 7.0, 5 mM MgCl2, 1 mM TECP, 25 °C
[4] = target: T2, Human Cdc42 GTPase, wild type, residues …; test: other fluorescence titration; Kd from the fluorescence difference before mixing and at equilibrium at seven [GBD] values on the stopped-flow instrument; 0.1 μM mantGppNHp·Cdc42; 50 mM sodium phosphate pH 7.0, 5 mM MgCl2, 1 mM TECP, 25 °C; kd deduced as the product of Kd and ka
[5] = target: T2, Human Cdc42 GTPase, wild type, residues …; test: stopped-flow fluorescence; ka from kobs against [GBD] as in buffer, with 1 M urea added
[6] = target: T1, Human Cdc42 (residues 1-179) with …; test: stopped-flow fluorescence; ka from kobs against [GBD] as in buffer, with 2 M urea added
[7] = target: T1, Human Cdc42 (residues 1-179) with …; test: other fluorescence titration; Kd from the fluorescence difference before mixing and at equilibrium at seven [GBD] values on the stopped-flow instrument; 0.1 μM mantGppNHp·Cdc42; 50 mM sodium phosphate pH 7.0, 5 mM MgCl2, 1 mM TECP, 25 °C; kd deduced as the product of Kd and ka
[8] = target: T1, Human Cdc42 (residues 1-179) with …; test: stopped-flow fluorescence; ka from kobs against [GBD] as in buffer, with 1 M urea added

B1: GTPase-binding domain (GBD) of the Wiskott-Aldrich Syndrome protein (WASP), wild type, residues 228-298 (domain or fragment, human)
chain: GSSGKKKISKADIGAPSGFKHVSHVGWDPQNGFDVNNLDPDLRSLFSRAGISEAQLTDAETSKLIYDFIEDQG
notes: two extra residues (Gly-Ser) from the thrombin recognition site left at the N-terminus of GBD; 15N labelled for the NMR experiment; also called GBDWT; wild-type GBD; source: E. coli Rosetta, purified (GSTrap, thrombin, 70 °C heat step, Superdex 75); not shown: GST, N-terminal, cleaved
kon [1]: 2.14e+07 M⁻¹ s⁻¹
kon [2]: 5.53e+06 M⁻¹ s⁻¹
koff [3]: 0.696 ± 0.011 s⁻¹
Kd [4]: 114 ± 9 nM
koff [4]: 0.63 s⁻¹
fold decrease of ka at 1 M urea relative to no urea [5]: 1.6 fold

B5: Truncated WASP GBD (residues 238-298) with the BR segment deleted (domain or fragment, human)
chain: GSIGAPSGFKHVSHVGWDPQNGFDVNNLDPDLRSLFSRAGISEAQLTDAETSKLIYDFIEDQG
notes: two extra residues (Gly-Ser) from the thrombin recognition site left at the N-terminus of GBD; also called GBDΔBR; source: E. coli Rosetta, purified (GSTrap, thrombin, 70 °C heat step, Superdex 75); not shown: GST, N-terminal, cleaved
kon [1]: 4.03e+06 M⁻¹ s⁻¹
kon [2]: 40000 M⁻¹ s⁻¹
fold decrease in kd relative to Cdc42WT [7]: 16 fold
fold increase in binding affinity relative to Cdc42WT [7]: ~1500 fold
fold increase in kd relative to GBDWT [4]: 10 fold
fold weakening in binding affinity relative to GBDWT [4]: 1420 fold

Other lines, results leading:

kon [1]: 1.09e+07 M⁻¹ s⁻¹
kon [2]: 920000 M⁻¹ s⁻¹
fold decrease of ka at 2 M urea relative to no urea [6]: 9.2 fold
fold decrease in kd relative to Cdc42WT [7]: 121 fold
fold higher affinity than GBDWT-Cdc42WT [7]: ~100 fold
fold increase in binding affinity relative to Cdc42WT [7]: ~1500 fold
fold increase in kd relative to GBDWT [4]: 2 fold
fold weakening in binding affinity relative to GBDWT [4]: 13 fold
fold decrease of ka at 1 M urea relative to no urea [8]: 3.5 fold
fold decrease of ka at 1 M urea relative to no urea [5]: 3.1 fold
B2: WASP GBD (residues 228-298) with Lys230Lys231Lys232 substituted by Ala (domain or fragment, human)
chain: B1 chain with K5A, K6A, K7A
notes: two extra residues (Gly-Ser) from the thrombin recognition site left at the N-terminus of GBD; 15N labelled for the NMR experiment; also called GBD3A; source: E. coli Rosetta, purified (GSTrap, thrombin, 70 °C heat step, Superdex 75); not shown: GST, N-terminal, cleaved

fold reduction of ka relative to GBD3A [2]: 2.5 fold
fold increase of Kd relative to GBD3A [4]: 3.7 fold
B3: WASP GBD (residues 228-298) with the 3A mutations plus Arg273 to Glu and Gly275 to Asp (domain or fragment, human)
chain: B1 chain with K5A, K6A, K7A, R48E, G50D
notes: two extra residues (Gly-Ser) from the thrombin recognition site left at the N-terminus of GBD; also called GBD_(3A/ED); source: E. coli Rosetta, purified (GSTrap, thrombin, 70 °C heat step, Superdex 75); not shown: GST, N-terminal, cleaved

kon [2]: 97000 M⁻¹ s⁻¹
fold increase in kd relative to GBDWT [4]: 7 fold
B4: WASP GBD (residues 228-298) with Lys230Lys231Lys232 changed to Glu (domain or fragment, human)
chain: B1 chain with K5E, K6E, K7E
notes: two extra residues (Gly-Ser) from the thrombin recognition site left at the N-terminus of GBD; also called GBD3E; source: E. coli Rosetta, purified (GSTrap, thrombin, 70 °C heat step, Superdex 75); not shown: GST, N-terminal, cleaved
